Where two headings read alike, the source gives them in different places.
Key:
Test in all cases: EMSA
[1] = molecular target: T1, DNMT1 (BAH1-BAH2-MTase fragment) (human, UniProt P26358 728-1600)
[2] = molecular target: T1, DNMT1 (BAH1-BAH2-MTase fragment); remark: listed apart in the source
[3] = molecular target: T1, DNMT1 (BAH1-BAH2-MTase fragment); remark: listed apart in the source
[4] = molecular target: DNMT3B;DNMT3L (human;human, UniProt Q9UBC3;Q9UJW3 562-853;178-386, |)
[5] = molecular target: DNMT3A;DNMT3L (human;human, UniProt Q9Y6K1;Q9UJW3 628-912;178-386, |)
Sequence of DNMT3A;DNMT3L (Q9Y6K1 628-912, chain 1 of 2): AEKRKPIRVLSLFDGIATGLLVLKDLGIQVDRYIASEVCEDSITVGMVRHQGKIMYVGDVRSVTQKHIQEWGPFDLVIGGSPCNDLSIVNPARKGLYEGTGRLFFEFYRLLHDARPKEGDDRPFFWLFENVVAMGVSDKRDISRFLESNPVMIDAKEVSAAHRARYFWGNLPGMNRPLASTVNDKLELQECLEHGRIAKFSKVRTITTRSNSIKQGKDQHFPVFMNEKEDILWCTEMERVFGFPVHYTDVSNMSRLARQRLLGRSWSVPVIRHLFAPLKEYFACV
Sequence of DNMT3A;DNMT3L (Q9UJW3 178-386, chain 2 of 2): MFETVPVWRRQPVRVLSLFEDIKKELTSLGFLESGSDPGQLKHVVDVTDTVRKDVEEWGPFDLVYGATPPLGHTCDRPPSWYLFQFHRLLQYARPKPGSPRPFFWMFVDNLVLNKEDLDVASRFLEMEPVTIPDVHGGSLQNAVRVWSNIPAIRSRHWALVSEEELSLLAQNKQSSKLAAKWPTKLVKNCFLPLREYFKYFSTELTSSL

[6] = molecular target: T1, DNMT1 (BAH1-BAH2-MTase fragment); remark: listed apart in the source
[7] = molecular target: T1, DNMT1 (BAH1-BAH2-MTase fragment); remark: listed apart in the source

T1 sequence (P26358 728-1600): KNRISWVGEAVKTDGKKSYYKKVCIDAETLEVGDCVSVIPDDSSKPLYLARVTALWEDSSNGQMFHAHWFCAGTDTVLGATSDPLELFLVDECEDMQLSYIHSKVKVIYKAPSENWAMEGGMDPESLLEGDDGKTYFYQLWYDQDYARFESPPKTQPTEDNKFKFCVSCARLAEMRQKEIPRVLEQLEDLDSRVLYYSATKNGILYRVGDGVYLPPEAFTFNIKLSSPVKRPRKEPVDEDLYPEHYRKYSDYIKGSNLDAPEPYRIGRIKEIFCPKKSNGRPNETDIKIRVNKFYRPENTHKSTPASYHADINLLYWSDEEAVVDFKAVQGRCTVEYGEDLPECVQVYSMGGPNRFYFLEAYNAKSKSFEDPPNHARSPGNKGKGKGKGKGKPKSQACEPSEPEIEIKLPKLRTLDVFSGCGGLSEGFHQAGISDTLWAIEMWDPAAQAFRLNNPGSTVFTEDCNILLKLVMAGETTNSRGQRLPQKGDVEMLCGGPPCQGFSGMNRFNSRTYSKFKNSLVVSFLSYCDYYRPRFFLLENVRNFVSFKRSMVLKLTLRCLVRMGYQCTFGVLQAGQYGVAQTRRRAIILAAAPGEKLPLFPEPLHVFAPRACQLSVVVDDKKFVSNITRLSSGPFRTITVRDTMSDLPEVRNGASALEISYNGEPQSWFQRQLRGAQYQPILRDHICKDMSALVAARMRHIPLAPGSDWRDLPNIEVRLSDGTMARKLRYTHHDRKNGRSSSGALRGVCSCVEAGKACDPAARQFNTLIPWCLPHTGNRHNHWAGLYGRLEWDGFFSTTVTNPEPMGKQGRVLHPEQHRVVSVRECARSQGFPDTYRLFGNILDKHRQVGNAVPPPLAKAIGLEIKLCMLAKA
Sequence of DNMT3B;DNMT3L (Q9UJW3 178-386, chain 2 of 2, other chains not shown): as the sequence (Q9UJW3 178-386, chain 2 of 2) above

B1: hemiDNA 36-mer (dsDNA)
DNA 1: GACGACGACGACGACGACGACGACGACGACGACGAC
DNA 2: GTCGTCGTCGTCGTCGTCGTCGTCGTCGTCGTCGTC
modifications: 5-methylcytosine at every C of strand 2
[1]
  binding signal: ~4 fold weaker than Apt. #9

## CGTCAGATGTGCGAGTGACATCTCAACGG (ssDNA) [Modified ssDNA #5]
[2]
  binding result: no binding

## CCCATGCGTAGGGTCTGATGCCTATGCGTG (ssDNA) [Apt. #10]
[2]
  binding result: binds

## CCCGGGACGCGGGUCCGGGACAG (ssRNA) [R2 RNA]
[3]
  binding signal: ~4 fold less binding than Apt. #9

## AGAAGTGGGGGTGAGTCCACTTCTG (ssDNA) [Apt. #9]
[4]
  binding result: no binding
[5]
  binding result: no binding
[2]
  Kd: 770 ± 110 nM

## AGATGTGCGAGTGACATCTCAACGGCCTAT (ssDNA) [Apt. #11]
[2]
  binding result: binds

## TGCGAGTGACATCTCAACGG (ssDNA) [non-binding ssDNA #12]
[2]
  binding result: no binding

## AGATCTGGGGGTGAGTCCACTTCTG (ssDNA) [Bulge2]
[6]
  binding result: binds

## CGTAGATGTGCGAGTGACATCTACGG (ssDNA) [Apt. #8]
[2]
  binding result: binds

## CAGATGTGCGAGTGACATCTC (ssDNA) [Modified ssDNA #7]
[7]
  binding result: no binding

## CGTAGATGTGCTGACATCTACGG (ssDNA) [Modified ssDNA #6]
[2]
  binding result: no binding

## ATAGAAGTGGGGGTGAGTCCACTTCTATG (ssDNA) [Steml]
[6]
  binding result: binds

Source: paper PMC7145629
